Our source for the Kd values is paper PMC7593955 (2020).

B7: ferrochelatase (FECH) (protein)
chain: GAKPQVQPQKRKPKTGILMLNMGGPETLGDVHDFLLRLFLDRDLMTLPIQNKLAPFIAKRRTPKIQEQYRRIGGGSPIKIWTSKQGEGMVKLLDELSPNTAPHKYYIGFRYVHPLTEEAIEEMERDGLERAIAFTQYPQYSCSTTGSSLNAIYRYYNQVGRKPTMKWSTIDRWPTHHLLIQCFADHILKELDHFPLEKRSEVVILFSAHSLPMSVVNRGDPYPQEVSATVQKVMERLEYCNPYRLVWQSKVGPMPWLGPQTDESIKGLCERGRKNILLVPIAFTSDHIETLYELDIEYSQVLAKECGVENIRRAESLNGNPLFSKALADLVHSHIQSNELCSKQLTLSCPLCVNPVCRETKSFFTSQQL

Holding throughout (experiment): SPR
Data set [1] deals with Adrenodoxin reductase (Homo sapiens) (UniProt P22570). As to conditions: cited from earlier work.
Data set [2] has the same target. As to conditions: cited from earlier work. The source holds these as a separate data set.
For the data set “ferrochelatase (FECH)”, the target named is B7.
Data set [3] deals with T1, adrenodoxin reductase (ADR) (Homo sapiens, UniProt P22570).
T1 chain: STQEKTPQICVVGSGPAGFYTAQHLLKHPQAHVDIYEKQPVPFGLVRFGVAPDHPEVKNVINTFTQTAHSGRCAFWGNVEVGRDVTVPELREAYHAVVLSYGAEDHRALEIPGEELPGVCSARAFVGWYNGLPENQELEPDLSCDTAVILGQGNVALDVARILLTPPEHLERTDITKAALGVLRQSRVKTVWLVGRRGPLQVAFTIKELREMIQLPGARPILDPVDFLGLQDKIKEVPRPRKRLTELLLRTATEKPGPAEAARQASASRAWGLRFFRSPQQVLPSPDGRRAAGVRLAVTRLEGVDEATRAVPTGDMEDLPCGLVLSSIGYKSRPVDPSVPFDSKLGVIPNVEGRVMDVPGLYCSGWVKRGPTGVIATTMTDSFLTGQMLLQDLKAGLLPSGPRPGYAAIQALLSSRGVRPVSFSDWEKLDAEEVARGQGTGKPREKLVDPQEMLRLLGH

The data set “SPR” concerns the molecule itself.

Consider Ferrochelatase (from UniProt P22830), for which the Kd in data set [1] is 13000 nM; in data set [2], 2000 nM.

B1: ferrochelatase (FECH) (protein)
chain: GAKPQVQPQKRKPKTGILMLNMGGPETLGDVHDFLLRLFLDRDLMTLPIQNKLAPFIAKRRTPKIQEQYRRIGGGSPIKIWTSKQGEGMVKLLDELSPNTAPHKYYIGFRYVHPLTEEAIEEMERDGLERAIAFTQYPQYSCSTTGSSLNAIYRYYNQVGRKPTMKWSTIDRWPTHHLLIQCFADHILKELDHFPLEKRSEVVILFSAHSLPMSVVNRGDPYPQEVSATVQKVMERLEYCNPYRLVWQSKVGPMPWLGPQTDESIKGLCERGRKNILLVPIAFTSDHIETLYELDIEYSQVLAKECGVENIRRAESLNGNPLFSKALADLVHSHIQSNELCSKQLTLSCPLCVNPVCRETKSFFTSQQL
modifications: 100 uM 5-nitroisatin
Take B1: the figures for the Kd (with ferrochelatase (FECH); in data set [3]) were 560 nM and 13700 nM, respectively.

B2: ferrochelatase (FECH) (protein)
chain: GAKPQVQPQKRKPKTGILMLNMGGPETLGDVHDFLLRLFLDRDLMTLPIQNKLAPFIAKRRTPKIQEQYRRIGGGSPIKIWTSKQGEGMVKLLDELSPNTAPHKYYIGFRYVHPLTEEAIEEMERDGLERAIAFTQYPQYSCSTTGSSLNAIYRYYNQVGRKPTMKWSTIDRWPTHHLLIQCFADHILKELDHFPLEKRSEVVILFSAHSLPMSVVNRGDPYPQEVSATVQKVMERLEYCNPYRLVWQSKVGPMPWLGPQTDESIKGLCERGRKNILLVPIAFTSDHIETLYELDIEYSQVLAKECGVENIRRAESLNGNPLFSKALADLVHSHIQSNELCSKQLTLSCPLCVNPVCRETKSFFTSQQL
modifications: 100 uM isatin
B2: the Kd came to 600 nM in the data set with ferrochelatase (FECH) and 3400 nM in data set [3].

B3: ferrochelatase (FECH) (protein)
chain: GAKPQVQPQKRKPKTGILMLNMGGPETLGDVHDFLLRLFLDRDLMTLPIQNKLAPFIAKRRTPKIQEQYRRIGGGSPIKIWTSKQGEGMVKLLDELSPNTAPHKYYIGFRYVHPLTEEAIEEMERDGLERAIAFTQYPQYSCSTTGSSLNAIYRYYNQVGRKPTMKWSTIDRWPTHHLLIQCFADHILKELDHFPLEKRSEVVILFSAHSLPMSVVNRGDPYPQEVSATVQKVMERLEYCNPYRLVWQSKVGPMPWLGPQTDESIKGLCERGRKNILLVPIAFTSDHIETLYELDIEYSQVLAKECGVENIRRAESLNGNPLFSKALADLVHSHIQSNELCSKQLTLSCPLCVNPVCRETKSFFTSQQL
modifications: 100 uM 5-bromoisatin
B3: the Kd is 530 nM with ferrochelatase (FECH) and 15500 nM in data set [3].

B4: ferrochelatase (FECH) (protein)
chain: GAKPQVQPQKRKPKTGILMLNMGGPETLGDVHDFLLRLFLDRDLMTLPIQNKLAPFIAKRRTPKIQEQYRRIGGGSPIKIWTSKQGEGMVKLLDELSPNTAPHKYYIGFRYVHPLTEEAIEEMERDGLERAIAFTQYPQYSCSTTGSSLNAIYRYYNQVGRKPTMKWSTIDRWPTHHLLIQCFADHILKELDHFPLEKRSEVVILFSAHSLPMSVVNRGDPYPQEVSATVQKVMERLEYCNPYRLVWQSKVGPMPWLGPQTDESIKGLCERGRKNILLVPIAFTSDHIETLYELDIEYSQVLAKECGVENIRRAESLNGNPLFSKALADLVHSHIQSNELCSKQLTLSCPLCVNPVCRETKSFFTSQQL
modifications: NHS/EDC-treated immobilized FECH
The molecule B4 yielded a Kd in the data set with ferrochelatase (FECH) of roughly 500 nM.

B5: ferrochelatase (FECH) (protein)
chain: GAKPQVQPQKRKPKTGILMLNMGGPETLGDVHDFLLRLFLDRDLMTLPIQNKLAPFIAKRRTPKIQEQYRRIGGGSPIKIWTSKQGEGMVKLLDELSPNTAPHKYYIGFRYVHPLTEEAIEEMERDGLERAIAFTQYPQYSCSTTGSSLNAIYRYYNQVGRKPTMKWSTIDRWPTHHLLIQCFADHILKELDHFPLEKRSEVVILFSAHSLPMSVVNRGDPYPQEVSATVQKVMERLEYCNPYRLVWQSKVGPMPWLGPQTDESIKGLCERGRKNILLVPIAFTSDHIETLYELDIEYSQVLAKECGVENIRRAESLNGNPLFSKALADLVHSHIQSNELCSKQLTLSCPLCVNPVCRETKSFFTSQQL
modifications: 100 uM 5-methylisatin
B5: the dissociation constant Kd with ferrochelatase (FECH) turned out to be 570 nM; in data set [3] it was 14300 nM.

B6: ferrochelatase (FECH) (protein)
chain: GAKPQVQPQKRKPKTGILMLNMGGPETLGDVHDFLLRLFLDRDLMTLPIQNKLAPFIAKRRTPKIQEQYRRIGGGSPIKIWTSKQGEGMVKLLDELSPNTAPHKYYIGFRYVHPLTEEAIEEMERDGLERAIAFTQYPQYSCSTTGSSLNAIYRYYNQVGRKPTMKWSTIDRWPTHHLLIQCFADHILKELDHFPLEKRSEVVILFSAHSLPMSVVNRGDPYPQEVSATVQKVMERLEYCNPYRLVWQSKVGPMPWLGPQTDESIKGLCERGRKNILLVPIAFTSDHIETLYELDIEYSQVLAKECGVENIRRAESLNGNPLFSKALADLVHSHIQSNELCSKQLTLSCPLCVNPVCRETKSFFTSQQL
modifications: 100 uM 5,7-dichloroisatin
Turning to B6, the dissociation constant (Kd) with ferrochelatase (FECH) worked out at 580 nM; in data set [3], 14700 nM.
On to B7, for which the figures for the Kd (in data set [3]; in “SPR”) were 15200 nM and 550 nM, respectively.

B8: ferrochelatase (FECH) (protein)
chain: GAKPQVQPQKRKPKTGILMLNMGGPETLGDVHDFLLRLFLDRDLMTLPIQNKLAPFIAKRRTPKIQEQYRRIGGGSPIKIWTSKQGEGMVKLLDELSPNTAPHKYYIGFRYVHPLTEEAIEEMERDGLERAIAFTQYPQYSCSTTGSSLNAIYRYYNQVGRKPTMKWSTIDRWPTHHLLIQCFADHILKELDHFPLEKRSEVVILFSAHSLPMSVVNRGDPYPQEVSATVQKVMERLEYCNPYRLVWQSKVGPMPWLGPQTDESIKGLCERGRKNILLVPIAFTSDHIETLYELDIEYSQVLAKECGVENIRRAESLNGNPLFSKALADLVHSHIQSNELCSKQLTLSCPLCVNPVCRETKSFFTSQQL
modifications: 100 uM 5-fluoroisatin
Turning to B8, the Kd with ferrochelatase (FECH) was 610 nM; in data set [3], 13800 nM.

B9: ferrochelatase (FECH) (protein)
chain: GAKPQVQPQKRKPKTGILMLNMGGPETLGDVHDFLLRLFLDRDLMTLPIQNKLAPFIAKRRTPKIQEQYRRIGGGSPIKIWTSKQGEGMVKLLDELSPNTAPHKYYIGFRYVHPLTEEAIEEMERDGLERAIAFTQYPQYSCSTTGSSLNAIYRYYNQVGRKPTMKWSTIDRWPTHHLLIQCFADHILKELDHFPLEKRSEVVILFSAHSLPMSVVNRGDPYPQEVSATVQKVMERLEYCNPYRLVWQSKVGPMPWLGPQTDESIKGLCERGRKNILLVPIAFTSDHIETLYELDIEYSQVLAKECGVENIRRAESLNGNPLFSKALADLVHSHIQSNELCSKQLTLSCPLCVNPVCRETKSFFTSQQL
modifications: 100 uM 5-iodoisatin
Regarding B9, the Kd was 540 nM with ferrochelatase (FECH) and 14100 nM in data set [3].
